Data reported in patent US20180171024A1.

How the values were obtained:
[1] = target: HLA-A2 on cells (tumor cell lines, normal primary cells, PBMCs) (human); assay: flow cytometry, HepG2 cells
[2] = target: HLA-A2/M1 on T2 cells (human); assay: flow cytometry, T2 cells loaded with M1 peptide
[3] = target: HLA-A2/TyrD-S9 on T2 cells (human); assay: flow cytometry, T2 cells loaded with TyrD S9 [..], 10 µg/ml
[4] = target: HLA-A2/TyrD-S19 on T2 cells (human); assay: flow cytometry, T2 cells loaded with TyrD-S19 [..], 10 µg/ml
[5] = target: HLA-A2/TyrD-S22 on T2 cells (human); assay: flow cytometry, T2 cells loaded with TyrD-S22 [..], 10 µg/ml
[6] = target: HLA-A2/TyrD-S7 on T2 cells (human); assay: flow cytometry, T2 cells loaded with TyrD S7 [..], 10 µg/ml
[7] = target: Unloaded T2 (Homo sapiens); assay: flow cytometry, unloaded T2 cells
[8] = target: HLA-A2/Gag on T2 cells (human); assay: flow cytometry, T2 cells loaded with GAG peptide
[9] = target: HLA-A2/P68 on T2 cells (human); assay: flow cytometry, T2 cells loaded with P68 [..], 10 µg/ml
[10] = target: HLA-A2 on cells (tumor cell lines, normal primary cells, PBMCs) (human); assay: flow cytometry, SK-Mel-5 melanoma cells, 10 µg/ml
[11] = target: HLA-A2 on cells (tumor cell lines, normal primary cells, PBMCs) (human); assay: flow cytometry, HEP-G2 cells, 10 µg/ml
[12] = target: HLA-A2/P68 on T2 cells (human); assay: flow cytometry, T2 cells loaded with P68 peptide
[13] = target: HLA-A2/NFACT on T2 cells (human); assay: flow cytometry, T2 cells loaded with NFACT peptide
[14] = target: HLA-A2/TyrD-S23 on T2 cells (human); assay: flow cytometry, T2 cells loaded with TyrD-S23 [..], 10 µg/ml
[15] = target: HLA-A2 on cells (tumor cell lines, normal primary cells, PBMCs) (human); assay: flow cytometry, CCRF-SB cells, 10 µg/ml
[16] = target: HLA-A2 on cells (tumor cell lines, normal primary cells, PBMCs) (human); assay: flow cytometry, hepatocytes #5200-1, 10 µg/ml
[17] = target: HLA-A2 on cells (tumor cell lines, normal primary cells, PBMCs) (human); assay: flow cytometry, PBMCs #YE, 10 µg/ml
[18] = target: HLA-A2 on cells (tumor cell lines, normal primary cells, PBMCs) (human); assay: flow cytometry, WM-115 melanoma cells

Substance: BB7.2 (antibody)
- GeoMean [1]: 154
- MFI [2]: 1990
- MFI relative to background [3]: 768
- MFI relative to background [4]: 555
- MFI relative to background [5]: 464
- MFI relative to background [6]: 666
- MFI [7]: 290
- MFI [8]: 1840
- MFI relative to background [9]: 1220
- MFI [10]: 118
- MFI [11]: 315
- MFI [12]: 2660
- MFI [13]: 2720
- MFI relative to background [14]: 443
- MFI [15]: 902
- MFI [16]: 591
- MFI [17]: 366
- MFI [18]: 127
